Laboratory results as given in patent US20200181261A1 (Bayer, published 2020).

T1: human CEACAM5, full-length, on transfected HeLa cells (human, UniProt P06731 35-685, GPI anchor at the C-terminus on the cell surface, not carried by the letters)
T1 construct: also called TPP-4188; HeLa human CEACAM5
T1 sequence: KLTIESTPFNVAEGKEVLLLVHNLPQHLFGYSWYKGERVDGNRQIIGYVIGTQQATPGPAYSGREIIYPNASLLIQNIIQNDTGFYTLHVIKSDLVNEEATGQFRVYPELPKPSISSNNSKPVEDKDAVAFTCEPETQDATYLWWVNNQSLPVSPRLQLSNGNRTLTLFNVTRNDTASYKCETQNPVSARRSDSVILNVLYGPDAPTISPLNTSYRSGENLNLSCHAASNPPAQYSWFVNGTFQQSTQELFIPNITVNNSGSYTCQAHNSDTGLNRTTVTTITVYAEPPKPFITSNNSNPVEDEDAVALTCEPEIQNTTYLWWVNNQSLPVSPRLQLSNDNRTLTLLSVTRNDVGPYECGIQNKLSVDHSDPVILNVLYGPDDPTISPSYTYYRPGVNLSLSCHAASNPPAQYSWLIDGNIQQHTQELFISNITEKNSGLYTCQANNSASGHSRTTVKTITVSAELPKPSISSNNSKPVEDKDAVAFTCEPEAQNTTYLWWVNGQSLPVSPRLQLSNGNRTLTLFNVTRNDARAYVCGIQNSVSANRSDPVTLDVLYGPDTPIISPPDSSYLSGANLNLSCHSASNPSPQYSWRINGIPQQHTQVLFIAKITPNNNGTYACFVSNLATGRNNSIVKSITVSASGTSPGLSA

T2: human CEACAM6, full-length, on cells (human, UniProt P40199 35-320)
T2 construct: used both for transfected HeLa cells and for tumor cell lines that express CEACAM6 endogenously; also called TPP-4639; HeLa human CEACAM6
T2 sequence: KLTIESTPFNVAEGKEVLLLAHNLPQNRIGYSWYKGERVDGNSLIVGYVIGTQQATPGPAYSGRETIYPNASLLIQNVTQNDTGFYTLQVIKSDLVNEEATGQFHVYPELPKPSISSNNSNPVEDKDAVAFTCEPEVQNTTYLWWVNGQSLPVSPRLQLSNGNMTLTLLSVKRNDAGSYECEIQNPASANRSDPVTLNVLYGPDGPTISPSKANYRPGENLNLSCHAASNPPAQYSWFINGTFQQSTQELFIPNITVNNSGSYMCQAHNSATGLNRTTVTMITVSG

T3: Macaca fascicularis (cynomolgus) CEACAM6, full-length, on transfected HeLa cells (Macaca fascicularis, GPI anchor at the C-terminus on the cell surface, not carried by the letters)
T3 construct: also called TPP-4189; HeLa Cynomolgus CEACAM6
T3 chain: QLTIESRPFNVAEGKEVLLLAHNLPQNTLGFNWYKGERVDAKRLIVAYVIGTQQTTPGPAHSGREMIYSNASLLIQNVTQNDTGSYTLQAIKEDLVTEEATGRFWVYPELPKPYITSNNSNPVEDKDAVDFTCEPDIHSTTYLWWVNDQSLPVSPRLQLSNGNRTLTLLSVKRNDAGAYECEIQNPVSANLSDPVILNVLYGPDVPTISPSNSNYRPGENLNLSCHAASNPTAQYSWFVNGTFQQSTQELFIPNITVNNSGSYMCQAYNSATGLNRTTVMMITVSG

T4: human CEACAM1, full-length, on transfected HeLa cells (human, UniProt P13688 35-526)
T4 construct: also called TPP-4185; HeLa human CEACAM1
T4 sequence: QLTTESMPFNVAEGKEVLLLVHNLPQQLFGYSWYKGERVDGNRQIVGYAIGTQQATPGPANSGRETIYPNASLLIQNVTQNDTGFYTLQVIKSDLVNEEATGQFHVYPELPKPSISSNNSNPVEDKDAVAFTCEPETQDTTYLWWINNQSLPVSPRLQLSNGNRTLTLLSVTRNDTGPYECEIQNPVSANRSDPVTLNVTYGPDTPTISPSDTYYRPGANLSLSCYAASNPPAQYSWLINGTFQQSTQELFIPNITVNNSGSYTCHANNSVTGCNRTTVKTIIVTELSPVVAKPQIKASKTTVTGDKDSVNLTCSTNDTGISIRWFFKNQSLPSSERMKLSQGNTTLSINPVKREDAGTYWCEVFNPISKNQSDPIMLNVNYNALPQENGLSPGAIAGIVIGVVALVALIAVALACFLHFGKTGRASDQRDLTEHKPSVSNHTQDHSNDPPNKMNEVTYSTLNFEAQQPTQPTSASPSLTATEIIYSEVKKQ

T5: human CEACAM3, full-length, on transfected HeLa cells (human, UniProt P40198 35-252)
T5 construct: also called TPP-4187; HeLa human CEACAM3
T5 sequence: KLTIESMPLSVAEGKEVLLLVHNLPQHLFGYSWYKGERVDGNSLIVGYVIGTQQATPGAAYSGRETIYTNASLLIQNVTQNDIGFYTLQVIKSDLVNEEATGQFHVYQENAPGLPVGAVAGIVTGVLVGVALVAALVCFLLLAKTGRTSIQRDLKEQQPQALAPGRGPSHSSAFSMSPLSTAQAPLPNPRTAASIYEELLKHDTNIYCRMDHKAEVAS


How the values were obtained:
Assay in all cases: FACS, transfected HeLa cells
[1] = target: T1, human CEACAM5, full-length, on …
Experimental: (§1) For FACS experiments HeLa wild type cells were cultured in RPMI-1640, 10% FCS, while CEACAM-receptor transfected HeLa cells received in addition 0.5% Gentamycin (stock 10 mg/ml, Fa. PAA) and 200 μg/ml Hygromycin B (stock 50 mg/ml, Invitrogen). Cells were washed 3 times with PBS w/o Ca²⁺/Mg²⁺ and were detached from the culture plate non-enzymatically with EDTA dissociation buffer (Gibco). Cells were washed in cold FACS buffer (PBS w/o Ca²⁺/Mg²⁺ and heat-inactivated 3% FCS) and were counted using a countess machine (Invitrogen). 10⁵ cells per well were plated and incubated with the respective primary antibody (5 μg/ml) for 1 h at 4° C. on a plate shaker. […] After 2 times washing the cells were resuspended in 100 μl FACS buffer and were analysed on a FACS Canto II machine (Beckton Dickinson) or a FACS Array (Beckton Dickinson).
(§2) For EC₅₀ analysis, the primary antibodies were used at increasing concentrations in a range from 0.1 nM to 100 nM. Half maximal binding values (EC₅₀) were determined by plotting the median fluorescence intensity signal against the concentration (logarithmic scale). Curve fitting of data was performed using the Graph Pad prism analysis software.

[2] = target: T2, human CEACAM6, full-length, on cells
Experimental: as §1, §2

[3] = target: T3, Macaca fascicularis (cynomolgus) …
Experimental: as §1, §2

[4] = target: T4, human CEACAM1, full-length, on …
Experimental: as §1, §2

[5] = target: T5, human CEACAM3, full-length, on …
Experimental: as §1, §2

| Binder | binding result [1] | EC50 [2] | FACS median fluorescence [2] | EC50 [3] | FACS median fluorescence [4] | binding result [5] | FACS median fluorescence [3] | binding result [4] |
| --- | --- | --- | --- | --- | --- | --- | --- | --- |
| TPP-3707 (antibody, human IgG2, kappa, V domains shown, also called 090E-M007-A09-Mat2-hIgG2-hIgG2Kappa) VH: EVQLVESGGGLVQPGGSLRLSCAASGFTFSLYQMHWVRQAPGKGLEWVSWISFSGGNTGYADSVKGRFTISRDNSKNTLYLQMNSLRAEDTAVYYCARATGYSSPWYLDPWGQGTLVTVSS VL: DIQMTQSPSSLSASVGDRVTITCQASHEIDNYLNWYQQKPGKAPKLLIYDAYWSKTGVPSRFSGSGSGTDFTLTISSLQPEDIATYYCQGYDDLSVTFGGGTKVDIKR | no binding (tested: 5 µg/ml) | 19 nM | 1000 to 10000 medianfluorescence | 4 nM | 10 to 100 medianfluorescence | – | – | – |
| TPP-2971 (antibody, mouse IgG1, V domains shown, murine hybridoma antibody, mouse IgG1; also called 792.15H12C9) VH: QVTLKESGPGILQPSQTLSLTCSFSGFSLSTYGIGVGWIRQPSGKDLEWLAHIWWNDNKYYNTALKSRLTISKDTSNNQVFLKIASVDTADTATYYCARISLPYFDYWGQGTTLTVSS VL: DIVMTQSQKFMSTSVGDRVSITCKASQNVGTAVAWYQQKPGQSPKLLIYSASNRYTGVPDRFTGSGSGTDFTLTISNMQSEDLADYFCQQYSSYPLTFGAGTKLELK | no binding (tested: 5 µg/ml) | 0.5 nM | 10 to 100 medianfluorescence | 0.5 nM | – | no binding (tested: 5 µg/ml) | 100 to 1000 medianfluorescence | no binding (tested: 5 µg/ml) |
| TPP-3821 (antibody, human IgG2, kappa, V domains shown, humanized from TPP-3187, human IgG2; also called 3187HU2-hIgG2Kappa) VH: QVTLRESGPALVKPTQTLTLTCTFSGFSLSTYGIGVGWIRQPPGKALEWLAHIWWNDNKYYSTSLKTRLTISKDTSKNQVVLTMTNMDPVDTATYYCARISLPYFDYWGQGTLVTVSS VL: DIQLTQSPSFLSASVGDRVTITCKASQNVGTAVAWYQQKPGKAPKLLIYSASNRYTGVPSRFSGSGSGTEFTLTISSLQPEDFATYYCQQYNNYPLTFGGGTKVEIKR | no binding (tested: 5 µg/ml) | 1 nM | – | 1 nM | – | no binding (tested: 5 µg/ml) | – | no binding (tested: 5 µg/ml) |
| TPP-3820 (antibody, human IgG2, kappa, V domains shown, humanized from TPP-3187, human IgG2; also called 3187HU1-hIgG2Kappa) VH: QVTLRESGPALVKPTQTLTLTCTFSGFSLTTYGIGVGWIRQPPGKGLEWLAHIWWNDNKYYSTSLKTRLTISKDTSKNQVVLTMTNMDPVDTATYYCARISLPYFDYWGQGTLVTVSS VL: DIQLTQSPSFLSASVGDRVTITCKASQNVGTAVAWYQQKPGKAPKLLIYSASNRYTGVPSRFSGSGSGTEFTLTISSLQPEDFATYYCQQYNNYPLTFGGGTKVEIKR | no binding (tested: 5 µg/ml) | 1 nM | – | 1 nM | – | no binding (tested: 5 µg/ml) | – | no binding (tested: 5 µg/ml) |

Second part, the binder after the results:

| binding result [1] | EC50 [2] | FACS median fluorescence [2] | EC50 [3] | FACS median fluorescence [4] | binding result [5] | FACS median fluorescence [3] | binding result [4] | Binder |
| --- | --- | --- | --- | --- | --- | --- | --- | --- |
| no binding (tested: 5 µg/ml) | 0.35 nM | 100 to 1000 medianfluorescence | 4 nM | – | no binding (tested: 5 µg/ml) | 100 to 1000 medianfluorescence | no binding (tested: 5 µg/ml) | TPP-3187 (antibody, mouse IgG1, V domains shown, murine hybridoma antibody, mouse IgG1; also called 792.15C4F4) VH: QVTLKESGPGILQPSQTLSLTCSFSGFSLTTYGIGVGWIRQPSGKGLEWLAHIWWNDNKYYNTALKSRLTISKDTSNNQVFLKIASVDTADTATYYCARISLPYFDYWGQGTTLTVSS VL: DIVMTQSQKFMSTSVGDRVSITCKASQNVGTAVAWYQQKPGQSPKLLIYSASNRYTGVPDRFTGSGSGTDFTLTISNMQSEDLADYFCQQYNNYPLTFGAGTKLELK |
| no binding (tested: 5 µg/ml) | 0.6 nM | – | 1.5 nM | – | no binding (tested: 5 µg/ml) | – | no binding (tested: 5 µg/ml) | TPP-3310 (antibody, human IgG2, kappa, humanized from TPP-2971, human IgG2; also called TPP-2971HU1-hIgG2Kappa) heavy: QVTLRESGPALVKPTQTLTLTCTFSGFSLSTYGIGVGWIRQPPGKALEWLAHIWWNDNKYYSTSLKTRLTISKDTSKNQVVLTMTNMDPVDTATYYCARISLPYFDYWGQGTTLTVSSASTKGPSVFPLAPCSRSTSESTAALGCLVKDYFPEPVTVSWNSGALTSGVHTFPAVLQSSGLYSLSSVVTVPSSNFGTQTYTCNVDHKPSNTKVDKTVERKCCVECPPCPAPPVAGPSVFLFPPKPKDTLMISRTPEVTCVVVDVSHEDPEVQFNWYVDGVEVHNAKTKPREEQFNSTFRVVSVLTVVHQDWLNGKEYKCKVSNKGLPAPIEKTISKTKGQPREPQVYTLPPSREEMTKNQVSLTCLVKGFYPSDIAVEWESNGQPENNYKTTPPMLDSDGSFFLYSKLTVDKSRWQQGNVFSCSVMHEALHNHYTQKSLSLSPG light: DIQLTQSPSFLSASVGDRVTITCKASQNVGTAVAWYQQKPGKAPKLLIYSASNRYTGVPSRFSGSGSGTEFTLTISSLQPEDFATYYCQQYSSYPLTFGGGTKVEIKRTVAAPSVFIFPPSDEQLKSGTASVVCLLNNFYPREAKVQWKVDNALQSGNSQESVTEQDSKDSTYSLSSTLTLSKADYEKHKVYACEVTHQGLSSPVTKSFNRGEC |
